How the values were obtained:
YFP‐labeled Bcl‐xl [1] = target: YFP‐labeled Bcl‐xl (UniProt Q07817); assay: FRET or BRET; live-cell FRET two-hybrid assay (E-FRET and 3^3-FRET) in HeLa cells coexpressing CFP-Mff and YFP-Bcl-xl, 50 µM Z-VAD-FMK; fragmented mitochondrial region of cells with punctate distribution (ROI 4)
YFP‐labeled Bcl‐xl [2] = target: YFP‐labeled Bcl‐xl (UniProt Q07817); assay: FRET or BRET; live-cell FRET two-hybrid assay (E-FRET and 3^3-FRET) in HeLa cells coexpressing CFP-Mff and YFP-Bcl-xl, 50 µM Z-VAD-FMK; cytoplasm of cells with filamentous Mff and Bcl-xl distribution (ROI 1)
YFP‐labeled Bcl‐xl [3] = target: YFP‐labeled Bcl‐xl (UniProt Q07817); assay: FRET or BRET; live-cell FRET two-hybrid assay (E-FRET and 3^3-FRET) in HeLa cells coexpressing CFP-Mff and YFP-Bcl-xl, 50 µM Z-VAD-FMK; cytoplasm of cells with punctate Mff and Bcl-xl distribution (ROI 3)
YFP‐labeled Bcl‐xl [4] = target: YFP‐labeled Bcl‐xl (UniProt Q07817); assay: FRET or BRET; live-cell FRET two-hybrid assay (E-FRET and 3^3-FRET) in HeLa cells coexpressing CFP-Mff and YFP-Bcl-xl, 50 µM Z-VAD-FMK; tubular mitochondrial region of cells with filamentous distribution (ROI 2)

UniProt Q07817, sequence (Q07817 whole entry, the tested form may be a part): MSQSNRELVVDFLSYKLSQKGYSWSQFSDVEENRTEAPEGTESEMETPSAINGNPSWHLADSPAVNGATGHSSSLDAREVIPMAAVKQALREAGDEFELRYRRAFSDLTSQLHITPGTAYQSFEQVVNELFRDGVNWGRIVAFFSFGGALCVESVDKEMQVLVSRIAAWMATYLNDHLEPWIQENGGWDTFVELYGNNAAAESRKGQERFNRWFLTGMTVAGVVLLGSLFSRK

EA (acceptor-centric FRET efficiency) (YFP‐labeled Bcl‐xl [1]): 0.115 | ED (donor-centric FRET efficiency) (YFP‐labeled Bcl‐xl [1]): 0.109 | stoichiometry N (YFP‐labeled Bcl‐xl [1]): 0.924 Bcl‐xl/Mff | EA (acceptor-centric FRET efficiency) (YFP‐labeled Bcl‐xl [2]): 0.151 | ED (donor-centric FRET efficiency) (YFP‐labeled Bcl‐xl [2]): 0.086 | stoichiometry N (YFP‐labeled Bcl‐xl [2]): 0.586 Bcl‐xl/Mff | EA (acceptor-centric FRET efficiency) (YFP‐labeled Bcl‐xl [3]): 0.072 | ED (donor-centric FRET efficiency) (YFP‐labeled Bcl‐xl [3]): 0.041 | stoichiometry N (YFP‐labeled Bcl‐xl [3]): 0.643 Bcl‐xl/Mff | EA (acceptor-centric FRET efficiency) (YFP‐labeled Bcl‐xl [4]): 0.071 | ED (donor-centric FRET efficiency) (YFP‐labeled Bcl‐xl [4]): 0.067 | stoichiometry N (YFP‐labeled Bcl‐xl [4]): 0.97 Bcl‐xl/Mff
Substance: CFP‐labeled Mff (mitochondrial fission factor) (from UniProt Q9GZY8 1-342) (natural protein)

Reference: PMC6886297
